The values that follow come from patent US20150086555A1.

Conditions in all cases: remark: other sources report otherwise
For assay [1], the target named is recombinant soluble homotrimeric HA of A/Egypt/3300-NAMRU3/08 (H5N1) (Influenza A virus A/Egypt/3300-NAMRU3/2008(H5N1)). Description: HA microarray, BCC supernatant.
Assay [2] deals with recombinant soluble homotrimeric HA, A/northern shoveler/California/HKWF115/07 H6N4 (Influenza A virus A/northern shoveler/California/HKWF115/2007(H6N1)). Briefly: microarray, transfection SN IgG, trimeric HA.
In assay [3] the target is recombinant soluble homotrimeric HA, A/Anhui/1/05 H5N1 (Influenza A virus A/Anhui/1/2005(H5N1)). Briefly: microarray, transfection SN IgG, trimeric HA.
The target of assay [4] is recombinant soluble homotrimeric HA, A/Japan/305/57 H2N2 (Influenza A virus A/Japan/305/1957(H2N2)). Briefly: microarray, transfection SN IgG, trimeric HA.
For assay [5], the target named is recombinant soluble homotrimeric HA, A/Hong Kong/156/97 H5N1 (Influenza A virus A/Hong Kong/156/97 (H5N1)). Description: microarray, transfection SN IgG, trimeric HA.
Assay [6] has as its target recombinant soluble homotrimeric HA, A/Wisconsin/67/05 H3N2 (Influenza A virus A/Wisconsin/67/2005(H3N2)). Briefly: microarray, transfection SN IgG, trimeric HA.
In assay [7] the target is recombinant soluble homotrimeric HA, A/Vietnam/1203/04 H5N1 (Influenza A virus A/VietNam/1203/2004(H5N1)). Description: microarray, transfection SN IgG, trimeric HA.
The target in assay [8] is recombinant soluble homotrimeric HA, A/chicken/Vietnam/NCVD-016/08 H5N1 (Influenza A virus A/chicken/Vietnam/NCVD-016/2008(H5N1)). Briefly: microarray, transfection SN IgG, trimeric HA.
Assay [9] deals with recombinant soluble homotrimeric HA, A/Indonesia/5/05 H5N1 (Influenza A virus A/Indonesia/5/2005(H5N1)). Description: microarray, transfection SN IgG, trimeric HA.
Assay [10] deals with recombinant soluble homotrimeric HA, A/Solomon Islands/3/06 H1N1 (Influenza A virus A/Solomon Islands/3/2006(H1N1)). Briefly: microarray, transfection SN IgG, trimeric HA.
The target of assay [11] is recombinant soluble homotrimeric HA, A/South Carolina/1/18 H1N1 (Influenza A virus A/South Carolina/1/18 (H1N1)). Description: microarray, transfection SN IgG, trimeric HA.
Assay [12] has as its target recombinant soluble homotrimeric HA, A/duck/Yangzhou/02/05 H8N4 (Influenza A virus A/duck/Yangzhou/02/2005(H8N4)). Description: microarray, transfection SN IgG, trimeric HA.
The target in assay [13] is recombinant soluble homotrimeric HA, A/California/4/09 H1N1 (Influenza A virus A/California/04/2009(H1N1)). Briefly: microarray, transfection SN IgG, trimeric HA.
Assay [14] has as its target recombinant soluble homotrimeric HA, A/Egypt/3300-NAMRU3/08 H5N1 (Influenza A virus A/Egypt/3300-NAMRU3/2008(H5N1)). Description: microarray, transfection SN IgG, trimeric HA.
In assay [15] the target is recombinant soluble homotrimeric HA of A/South Carolina/1/18 (H1N1) (Influenza A virus A/South Carolina/1/18 (H1N1)). Description: trimeric HA microarray, transfection supernatant set 5.
Assay [16] concerns the target recombinant homotrimeric HA A/duck/Yangzhou/02/05 H8N4 (Influenza A virus A/duck/Yangzhou/02/2005(H8N4)). Briefly: protein microarray, purified IgG, trimeric HA.
Assay [17] has as its target recombinant homotrimeric HA A/swine/Ontario/01911-2/99 H4N6 (Influenza A virus A/Swine/Ontario/01911-2/99 (H4N6)). Description: protein microarray, purified IgG, trimeric HA.

B1: TCN-552 (5249_I23) (antibody, V domains shown)
VH: QVQVVQSGAEVKKPGSSVRVSCQASGGTFMNYAIIWVRRAPGQGLEWMGGIIPVFPTPNYAQMFQGRVTISTDESRSTSFLELTNLRYEDTAVYYCARRIYHGGNSGFDFWGQGTLVTVSS
VL: EIVLTQSPATLSLSPGERATLSCRASQSVGNYLAWYQQKPGQAPRLLIYDSSNRAPGIPARFSGSGSGTDFTLTISSLAPEDFAVYYCQQRSKWPPMYSFGHGTKLEIK
Consider B1, for which the Trimeric HA Binding: RLU in [1] amounted to 40000 RLU; in assay [2], 43900 RLU; in assay [3], 9010 RLU; in assay [4], 52000 RLU; in [5], 36300 RLU; in assay [6], 18500 RLU. In addition, the Trimeric HA Binding: RLU in [7] came out at 18500 RLU; in assay [8], 34500 RLU; in assay [9], 43400 RLU; in assay [10], 48600 RLU; in assay [11], 37400 RLU; in [12] it was 15900 RLU. Also, the Trimeric HA Binding: RLU is 23500 RLU in assay [13] and 21200 RLU in assay [14].

B2: TCN-543 (5081_G23) (antibody, V domains shown)
VH: QVHLVQSGAEVRKPGDSVKVSCKTSGYTFSTYPVAWVRQVPGQGLEWMGWISTYNGNTNFAQNFQGRVTLTTDTTTNTAYMEVRSLKFDDTAVYYCARVEGSYRDFWNNQNRFDPWGQGTLVTVSS
VL: SYVLTQPPSVSVAPGQTARISCGGSNIGGKSVHWYQQKPGQAPVLVVYDDSGRPSGIPERFSGSNSGDTATLTISRVEAGDEADYFCQVWDNFGGVFGTGTKVTVL
Take B2: the Trimeric HA Binding: RLU in [15] stood at 28300 RLU; in assay [16], 119 RLU; in [17], 169 RLU.

B3: TCN-530 (5248_H10a) (antibody, V domains shown)
VH: QVQLVQSGAEVRKPGSSVKVSCKASGGPFMSYAIGWVRQAPGQGLEWMGGINPVFGRPHYAQKFQGRVTIATDDSTKTSYMELSSLTSEDTGMYYCASRYSRSSPGTFESWGQGTLVTVSS
VL: EIVMTQFPATLSVSPGERVTLSCRASQSVSNNLAWYQQKPGQPPRLLIYDASTRATGVPAKFSGTGSGTEFTLSISSLQSEDFAVYYCQQYHNWPPSYSFGLGTKLEIK
With B3, the values for the Trimeric HA Binding: RLU in assay [16], in [17] and in assay [1] were 158 RLU, 139 RLU and 30400 RLU, respectively.

B4: TCN-550 (5096_F06) (antibody, V domains shown)
VH: QVQLQESGPGLVKPSETLSLTCTVSGASINSHYWSWIRQPPGKGLEWIGYVYYSGSTTYNPSLKSRVTLSVDTSKNQFSLNLSSVTAADTAFYYCARHPYDVLTGSGDWFDPWGQGTLVTVSS
VL: SYVLTQAPSVSVAPGQTARITCGGNAIGSKKVHWYQHKAGQAPVLVVYDDTDRPSGIPERFSGSNSWSTATLTINRVEAGDEADYYCQVWDFTIDHVVFGGGTKLTVL
B4: the Trimeric HA Binding: RLU in assay [16] amounted to 256 RLU; in assay [2], 2300 RLU; in assay [3], 7680 RLU; in assay [4] it was 731 RLU; in assay [5] it was 955 RLU; in assay [6], 37800 RLU. Also, the Trimeric HA Binding: RLU in assay [7] came to 41900 RLU; in [8] it was 1800 RLU; in assay [9] it was 9000 RLU; in assay [10], 758 RLU; in assay [11] it was 1010 RLU; in [12] it was 4710 RLU. In addition, the Trimeric HA Binding: RLU in assay [13] is 628 RLU; in assay [14] it was 26800 RLU.

B5: TCN-539 (5056_A08) (antibody, V domains shown)
VH: QVQLVESGGGVVQPGRSLRLSCAASEITFITYAMHWVRQAPGKGLEWVALISDDGSNKFYADSVKGRFTISRDNSKNTLYLQMNSLRAEDTAAYYCAREGVYFDSGTYRGYFDYWGQETLVTVSS
VL: EIVLTQSPATLSLSPGERATLSCRASQSVSSYLAWYQQKPGQAPRLLIYDASNRATGIPARFSGSGSGTDFTLTISSLEPEDFAVYYCQQRSHWPPITFGQGTRLEIK
In the case of B5, the Trimeric HA Binding: RLU in [15] worked out at 5330 RLU; in assay [16], 124 RLU; in assay [1] it was 11400 RLU.

B6: TCN-540 (5060_F05) (antibody, V domains shown)
VH: QVQLVQSGGGVVQPGRSLRLSCAASGFTFSSYAMHWVRQAPGKGLEWVAIISYDGNDQYYTDSVKGRFTISRDSSKVYLQMHRLRPEDTAVYYCAKEFETSGYFHGSFDYWGQGILVTVSS
VL: QSALTQPASVSGSPGQSITISCTGTSSDVGGYNYVSWYQQHPGKAPKLLIYEVTNWPSGVSNRFSGSKSGNTASLTISGLQAEDEADYYCSSYAGSSTWVFGGGTRVTVL
Regarding B6, the Trimeric HA Binding: RLU in [15] was found to be 1360 RLU; in assay [16], 318 RLU; in assay [17], 138 RLU; in assay [1], 1970 RLU.

B7: TCN-534 (5249_B02) (antibody, V domains shown)
VH: QVQLVQSGAEVKKPGSSVKVSCRESGGTFNGYTITWVRQAPGQGLEWMGGIIPMMGTVNYAQKLQGRVTITTDYFTKTAYMDLNNLRSEDTAMYYCVKIRYTGQQLLWGQGTLVTVSS
VL: DIQMTQSPSTLSASIGDRVTITCRASQSIASWLAWYQQKPGKAPKLLIYEAVNLESGVPSRFSGSGSGTDFTLTISSLQPDDFATYFCQHYGTISQTFGGGTKVEIK
As for B7, the Trimeric HA Binding: RLU in assay [1] turned out to be 41400 RLU.

B8: TCN-538 (3206_O17) (antibody, V domains shown)
VH: QITLKESGPTLVKPTQTLTLTCVFSGFSLSITGVRVGWIRQPPGKALEWLALISWDDEKHYSPSLQSRLTITKDTSKNQVVLTMTNLDPVDTATYYCARSTDRGHVLRYFGWMLPGDAFDVWGQGTMVTVSS
VL: DIVMTQSPDFLPVSLGERATINCKSSQRVLYSSNNKNYLAWYQLKPGQPPKLIIYWASTRESGVPDRFSGSGSGTEFTLTISSLQAEDVAVYYCQQYYSRPYTFGQGTKLEIK
Take B8: the Trimeric HA Binding: RLU in assay [15] amounted to 8430 RLU; in [1] it was 23600 RLU.

B9: TCN-536 (5095_N01) (antibody, V domains shown)
VH: QVQLQQWGAGLLKPSETLSLTCAVYGGSFSVSGYYWSWIRQPPGRGLEWIGEISHGGSTNYNPSLKSRVTISVDTTKNQFSLRLSSVTAADTAVYYCARGTDPDTEVYCRVGNCAAFDYWGQGSLVTVSS
VL: EIILAQSPGTLSLSPGERATLSCRASQFVSTRSLAWYQQRPGQAPRLLIYGASSRATGIPDRFSGSGSGTDFTLTISRLEPEDFAVYYCQHYGYSPRYAFGQGSKVEIK
In the case of B9, the Trimeric HA Binding: RLU in assay [16] amounted to 251 RLU; in assay [17], 126 RLU.

B10: TCN-535 (5246_P19) (antibody, V domains shown)
VH: QVQLVQSGSEVKKPGTSVKVSCTASGSVFTNYGISWVRQAPGQGLEWMGGIIPLFGAAKYAQKFQGRVTITADESTKTVYMELSRLTSKDTAIYFCAKAPRVYEYYFDQWGQGTPVTVSS
VL: EIVLTQSPGTLSLSPGERATLSCRASQSVSSSQLAWYQQKPGQAPRLIIYGASTRATGIPDRFSGSGSGTDFTLTIGRLEPEDFAVFFCQQYSTSPPTFGQGTKVDFK
On to B10, for which the Trimeric HA Binding: RLU in assay [1] was determined as 39400 RLU.

B11: TCN-546 (5089_L08) (antibody, V domains shown)
VH: QVQLQQWGAGLLKPSETLSLTCGVYGGSLSDYYWSWIRQPPGKGLEWIGEINHSGGTNYNPSLKRRVTISVDTSKKQFSLKMNSVTAADTAVYYCARGTDPDTEVYCRAGNCAAFDFWGQGTLVTVSS
VL: EIVLTQSPGTLSLSPGERATLSCRASHFVIGRAVAWYQQKPGQAPRLLIYGASSRATGIPDRFSGSGSGTDFTLTISRLETEDFAVFYCQHYGSSPRYAFGQGTKLEIK
B11: the Trimeric HA Binding: RLU was 955 RLU in assay [15] and 211 RLU in [16].
